Laboratory results from paper doi:10.1101/2020.02.18.954511 (bioRxiv, 2020).
Like-named read-outs stand apart in the source and are kept apart here.

What was measured:
dynamic light scattering = target: the molecule itself; experiment: dynamic light scattering
diol dehydratase PduCDE [1] = target: T1, diol dehydratase PduCDE (Salmonella enterica, UniProt P37450 1-554; O31041 1-224; O31042 1-173); experiment: time-resolved fluorescence anisotropy
T1 sequence (looked up) 1: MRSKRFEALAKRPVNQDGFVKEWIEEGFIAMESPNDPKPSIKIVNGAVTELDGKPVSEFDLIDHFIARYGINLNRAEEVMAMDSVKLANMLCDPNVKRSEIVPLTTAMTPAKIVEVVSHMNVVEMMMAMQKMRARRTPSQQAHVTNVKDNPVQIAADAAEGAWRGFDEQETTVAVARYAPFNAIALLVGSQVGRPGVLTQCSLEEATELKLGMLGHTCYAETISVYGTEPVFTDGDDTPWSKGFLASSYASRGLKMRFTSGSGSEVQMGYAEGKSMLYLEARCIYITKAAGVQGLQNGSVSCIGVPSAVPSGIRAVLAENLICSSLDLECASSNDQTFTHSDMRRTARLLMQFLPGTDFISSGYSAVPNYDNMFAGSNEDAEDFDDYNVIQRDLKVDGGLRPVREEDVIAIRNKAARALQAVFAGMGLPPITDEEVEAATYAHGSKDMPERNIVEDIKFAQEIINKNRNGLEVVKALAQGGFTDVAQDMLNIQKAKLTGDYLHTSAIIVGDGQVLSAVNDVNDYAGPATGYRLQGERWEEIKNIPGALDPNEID
T1 sequence (looked up) 2: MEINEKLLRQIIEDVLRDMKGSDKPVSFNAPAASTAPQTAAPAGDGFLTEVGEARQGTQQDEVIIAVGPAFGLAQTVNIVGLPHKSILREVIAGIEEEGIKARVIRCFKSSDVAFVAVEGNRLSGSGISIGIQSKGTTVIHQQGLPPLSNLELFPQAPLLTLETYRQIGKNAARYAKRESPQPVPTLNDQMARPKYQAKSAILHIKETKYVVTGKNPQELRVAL
T1 sequence (looked up) 3: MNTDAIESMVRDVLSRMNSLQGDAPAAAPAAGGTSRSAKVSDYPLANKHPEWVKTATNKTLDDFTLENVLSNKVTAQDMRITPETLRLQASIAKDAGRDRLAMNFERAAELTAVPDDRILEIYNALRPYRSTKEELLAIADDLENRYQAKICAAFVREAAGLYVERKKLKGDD

diol dehydratase PduCDE [2] = target: T1, diol dehydratase PduCDE; experiment: time-resolved fluorescence anisotropy; remark: listed apart in the source

B1: shell protein PduB (N-terminal truncated) (natural protein, Salmonella enterica, UniProt P37449 38-270, looked up)
chain: MAEKSCSLTEFVGTAIGDTLGLVIANVDTALLDAMKLEKRYRSIGILGARTGAGPHIMAADEAVKATNTEVVSIELPRDTKGGAGHGSLIILGGNDVSDVKRGIEVALKELDRTFGDVYGNEAGHIELQYTARASYALEKAFGAPIGRACGIIVGAPASVGVLMADTALKSANVEVVAYSSPAHGTSFSNEAILVISGDSGAVRQAVTSAREIGKTVLATLGSEPKNDRPSYI
Dynamic light scattering
  binding result: binds
Diol dehydratase PduCDE [1]
  binding result: binds

B2: shell protein PduB’M38L (natural protein, Salmonella enterica, UniProt P37449 1-270, looked up)
chain: MSSNELVEQIMAQVIARVATPEQQAIPGQPQPIRETALAEKSCSLTEFVGTAIGDTLGLVIANVDTALLDAMKLEKRYRSIGILGARTGAGPHIMAADEAVKATNTEVVSIELPRDTKGGAGHGSLIILGGNDVSDVKRGIEVALKELDRTFGDVYGNEAGHIELQYTARASYALEKAFGAPIGRACGIIVGAPASVGVLMADTALKSANVEVVAYSSPAHGTSFSNEAILVISGDSGAVRQAVTSAREIGKTVLATLGSEPKNDRPSYI
Diol dehydratase PduCDE [2]
  binding result: binds
